Reference: publication PMC4964276 (The Biochemical journal, 2016)

Molecular target: RIIα-D/D(1–44) used for ITC (human, UniProt P13861 1-44)
Assay: ITC

Sequence of RIIα-D/D(1–44) used for ITC (P13861 1-44): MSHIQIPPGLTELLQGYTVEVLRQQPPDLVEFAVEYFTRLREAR

- Kd: 0.6 nM
- dH: -22550 ± 171
- stoichiometry N: 0.98 sites
B1: AKAP18β(43–83) (domain or fragment, human)
chain: NGGEPDDAELVRLSKRLVENAVLKAVQQYLEETQNKNKPGE
